Data taken from paper doi:10.1101/2022.04.14.488316 (bioRxiv, 2022).
No end group written: not given here.

Tests used:
Experiment in all cases: fluorescence polarisation
[1] = target: VHL-ElonginC-ElonginB (VCB), wild type (UniProt P40337;Q15369;Q15370)
[2] = target: VHL-ElonginC-ElonginB (VCB) with VHL N67Q (UniProt P40337;Q15369;Q15370, N67Q)
[3] = target: VHL-ElonginC-ElonginB (VCB) with VHL P71I (UniProt P40337;Q15369;Q15370, P71I)

Measured: binding result

Sequence of VHL-ElonginC-ElonginB (VCB) with VHL P71I (P40337 54-213 P71I, chain 1 of 3): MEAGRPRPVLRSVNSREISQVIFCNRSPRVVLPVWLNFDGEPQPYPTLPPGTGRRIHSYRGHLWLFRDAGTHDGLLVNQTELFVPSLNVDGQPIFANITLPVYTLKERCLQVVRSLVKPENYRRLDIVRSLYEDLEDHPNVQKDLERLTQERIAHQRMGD
Sequence of VHL-ElonginC-ElonginB (VCB) with VHL P71I (Q15369 17-112, chain 2 of 3): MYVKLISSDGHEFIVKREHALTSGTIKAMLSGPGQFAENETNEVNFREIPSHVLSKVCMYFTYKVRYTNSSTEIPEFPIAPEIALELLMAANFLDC
Sequence of VHL-ElonginC-ElonginB (VCB) with VHL P71I (Q15370 1-104, chain 3 of 3): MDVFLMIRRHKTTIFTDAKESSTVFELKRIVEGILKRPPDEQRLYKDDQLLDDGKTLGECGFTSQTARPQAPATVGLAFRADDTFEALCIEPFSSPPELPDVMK
Sequence of VHL-ElonginC-ElonginB (VCB), wild type (P40337 54-213, chain 1 of 3): as the sequence (P40337 54-213 P71I, chain 1 of 3) above, with I18P counted along it
Sequence of VHL-ElonginC-ElonginB (VCB), wild type (Q15369 17-112, chain 2 of 3): as the sequence (Q15369 17-112, chain 2 of 3) above
Sequence of VHL-ElonginC-ElonginB (VCB), wild type (Q15370 1-104, chain 3 of 3): as the sequence (Q15370 1-104, chain 3 of 3) above
Sequence of VHL-ElonginC-ElonginB (VCB) with VHL N67Q (P40337 54-213 N67Q, chain 1 of 3): as the sequence (P40337 54-213 P71I, chain 1 of 3) above, with N14Q, I18P counted along it
Sequence of VHL-ElonginC-ElonginB (VCB) with VHL N67Q (Q15369 17-112, chain 2 of 3): as the sequence (Q15369 17-112, chain 2 of 3) above
Sequence of VHL-ElonginC-ElonginB (VCB) with VHL N67Q (Q15370 1-104, chain 3 of 3): as the sequence (Q15370 1-104, chain 3 of 3) above

DEALAPYIPMDDDFQLRSF (also: FAM label, site not given here) [5,6-carboxyfluorescein (FAM)-labeled HIF-1α peptide JC9]
binds: all assays above
